The values that follow come from patent US20080220459.

In data set [1] the test system is bovine collagen alpha1 (IX) in bovine nasal cartilage explants.
The target of data set [2] is human collagen alpha1 (IX) in human articular cartilage (UniProt P20849).
Chain of human collagen alpha1 (IX) in human articular cartilage (P20849 24-921): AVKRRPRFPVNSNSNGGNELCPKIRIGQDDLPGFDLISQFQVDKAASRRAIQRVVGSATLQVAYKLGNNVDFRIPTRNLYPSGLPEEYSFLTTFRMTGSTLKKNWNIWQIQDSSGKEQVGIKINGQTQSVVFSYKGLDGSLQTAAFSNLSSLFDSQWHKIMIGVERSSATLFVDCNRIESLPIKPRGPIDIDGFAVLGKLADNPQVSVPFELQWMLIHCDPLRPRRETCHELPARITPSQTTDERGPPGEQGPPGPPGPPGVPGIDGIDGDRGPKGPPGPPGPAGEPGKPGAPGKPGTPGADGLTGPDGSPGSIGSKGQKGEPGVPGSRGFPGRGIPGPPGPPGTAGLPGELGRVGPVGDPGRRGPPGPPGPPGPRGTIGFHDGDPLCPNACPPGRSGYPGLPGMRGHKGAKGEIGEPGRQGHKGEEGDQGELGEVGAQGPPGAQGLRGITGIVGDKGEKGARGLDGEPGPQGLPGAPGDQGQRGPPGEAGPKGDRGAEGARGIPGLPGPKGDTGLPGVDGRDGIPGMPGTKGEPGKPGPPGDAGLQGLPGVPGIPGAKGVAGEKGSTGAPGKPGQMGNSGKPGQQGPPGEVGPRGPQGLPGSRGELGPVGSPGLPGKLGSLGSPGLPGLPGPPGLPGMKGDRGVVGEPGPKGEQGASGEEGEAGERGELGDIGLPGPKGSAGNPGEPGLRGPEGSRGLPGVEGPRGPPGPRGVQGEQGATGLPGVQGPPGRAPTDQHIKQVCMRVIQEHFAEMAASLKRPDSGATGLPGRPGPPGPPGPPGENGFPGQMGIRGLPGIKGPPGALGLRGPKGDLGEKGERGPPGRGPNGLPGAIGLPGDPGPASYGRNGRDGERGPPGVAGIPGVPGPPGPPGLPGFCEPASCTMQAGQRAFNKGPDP

On to matrix metalloproteinase 13 (MMP-13), for which, in data set [1], the “cleavage of collagen alpha1 (IX) in cartilage explants (Western blot and LC-MS of released fragments)” value is “Bovine nasal cartilage explants were digested with MMP-13 and indeed the enzyme cleaved collagen α1 (IX)”. Moreover, the “cleavage of collagen alpha1 (IX) in human articular cartilage (Western blot and LC-MS of the released 30 kD fragment)” value in data set [2] was “a peptide representing a potentially new cleavage site CHELPARITPSQ^263-COOH (SEQ ID NO:6) NH2-TTDERGPP- (SEQ ID NO:7)”.
